From the supplement of paper PMC12042874 come the findings set out here.

± gives the uncertainty stated by the source.

This data set can be described thus: amyloid nucleation score (Sup35N fusion, yeast selection) (log enrichment); library NNK2; higher = more nucleation; inactive = no reads after selection. The procedure, abridged:
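The nucleation score is the log enrichment of output over input reads, calculated with DiMSum and centred on the mode score of non-aggregating sequences. Sequences with under 100 input reads were excluded. Reads came from Illumina sequencing of plasmid inserts from psi-negative yeast expressing Sup35N fused to peptides of 20 random codons, induced 24 hours with 100 μM copper sulfate and grown 7 days at 30°C without adenine and uracil.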

On to FSMPLLALAFLL, for which the amyloid nucleation score result is “inactive”. The result for FLVIVTVNLMYESQRMGSPV reads “inactive”. The result for FSSSFVVWALYPVTFHLTRS reads 0.112 ± 0.4; that for NIRSYPVNYKHHFT, 0.19 ± 0.27. Take DSLLKVLRRIWCLYVGGNLI: the amyloid nucleation score was -0.758 ± 0.37. In the case of DANLLFGYFPCPCT, the amyloid nucleation score result is “inactive”.

Substance EFDDYSFICRILSALFES yielded an amyloid nucleation score of -0.153 ± 1.1. Substance AQVDGSISSSSVVSVLKSEV gave an amyloid nucleation score of -0.262 ± 0.36. The value for DYRMVYSCCMLGREGWRNTW was 5.606 ± 0.035; that for ATESIMLLPYNTDPSMTWLT was 0.227 ± 0.55; that for GMIVVTSGNSR was -0.037 ± 0.42. In the case of ESSFLLNHHT, the amyloid nucleation score was -0.142 ± 0.79.

As to YRCFGERIFLHAHRE, the amyloid nucleation score entry is “inactive”. As to VKLEMD, the amyloid nucleation score is -0.617 ± 0.21. With SCSDMIKYHHTVELSLVSAT, the amyloid nucleation score was found to be 0.295 ± 1.

Take DTIILC: the amyloid nucleation score entry was “inactive”. With RTNVWASDI, the amyloid nucleation score was -0.32 ± 0.39.

SLAPQMLPCHFSWILDPCC showed an amyloid nucleation score of -0.01 ± 1. Consider VGTSWLFLMV, for which the amyloid nucleation score result was “inactive”.

As for GGTIKALYNSSGTRRMSKLR, the amyloid nucleation score is -0.224 ± 0.2.

KYCDWYL had an amyloid nucleation score of -0.274 ± 0.22. CHLLSRSCKFYGD registered an amyloid nucleation score of -0.898 ± 1.1.

With DIFIGNSVCGVYRMVNMYSY, the amyloid nucleation score result was “inactive”. TYICT yielded an amyloid nucleation score of -0.59 ± 0.24. Consider PFLVLSWDRCN, for which the amyloid nucleation score is -0.288 ± 1.1. Substance PLYSPRVCFFGYAPKVCITH returned an amyloid nucleation score of -0.724 ± 0.4. RQLAFFLIYPHGASVTYWAP yielded an amyloid nucleation score of -0.956 ± 1.1. As to HASWIGISLS, the amyloid nucleation score is -0.395 ± 0.74.

CVGGGRQKCEHNVMITLMTF displayed an amyloid nucleation score of 4.22 ± 0.056. SCGIVRERFIVFELWSVCSG: the amyloid nucleation score is -0.147 ± 0.42. REVYWLMCTA: the amyloid nucleation score turned out to be 0.747 ± 0.47.

As for NNSMLLSDTLLGYRRTGLDC, the amyloid nucleation score was -0.176 ± 0.3.

For the substance HFMSYAAWAREWSVEPQ, the amyloid nucleation score is 0.967 ± 0.66.

With SNKTIYKLFRIISPGYFGSS, the amyloid nucleation score was -1.16 ± 1. As for YSVIRS, the amyloid nucleation score is -0.171 ± 0.34. The result for LLDMYNYTGIF reads “inactive”; that for FFCLIVLVANVTCCGRDEGP, 5.32 ± 0.055. The substance VVVNNGTGKVPFDDM came in with an amyloid nucleation score of -0.952 ± 0.42. Substance NFHLSVRSDSYVL came in with an amyloid nucleation score of 3.14 ± 0.12.

Consider YCCGGRIRKSRLINFYVTWS, for which the amyloid nucleation score is -0.046 ± 0.5.

With DLTGGVRLRRWGWTSCSGNG, the amyloid nucleation score is 0.404 ± 0.46. CNSYEYLRN: the amyloid nucleation score is -0.035 ± 0.76.

For the substance IREGMWCSRGMHHTRLRDFS, the amyloid nucleation score was found to be 0.671 ± 0.64.

HVDIRLWTFNRSRFIGVFGV: the amyloid nucleation score came to 2.75 ± 0.079. The result for GIFTTWNRISRRLCLRVHYP reads -0.497 ± 0.34. The value for YIIGSNEFSEHETDLNGYQT was -0.938 ± 0.62. As for SDGLGSILIFGPPNY, the amyloid nucleation score was -0.992 ± 0.3. Substance PGCSIDWILYRRTAYGTISD gave an amyloid nucleation score of -0.619 ± 0.36. Regarding NRLERMLLTDTDVSEKGSLG, the amyloid nucleation score was -0.204 ± 0.54.

With YGSLVYVPAYGEISL, the amyloid nucleation score was -0.921 ± 0.5. In the case of NLASRALIKLFH, the amyloid nucleation score is -0.538 ± 0.48. Regarding VYWTKWGFLLVSSVKVLSLE, the amyloid nucleation score was -0.14 ± 1. In the case of WWKYLVICLWARMALKGFSL, the amyloid nucleation score result is “inactive”. In the case of KSIRAYYYVSRQ, the amyloid nucleation score turned out to be 0.263 ± 0.25.

In turn, NGGINNSWWGLIFLNLWPTI registered an amyloid nucleation score of -0.592 ± 0.79.

Take LFFTFSKKFAR: the amyloid nucleation score was found to be 3.48 ± 0.068. For the substance VCFGEQT, the amyloid nucleation score came to 0 ± 0.21. The substance FSRTSPIRQMIWKFLDCQPA came in with an amyloid nucleation score of -0.978 ± 0.41.

Substance TNQGFLWVSPLILTRCGDRQ yielded an amyloid nucleation score of 6.68 ± 0.079.

Substance WGWKYMLEELN registered an amyloid nucleation score of -0.177 ± 0.55. For the substance YHYDCYHLLTERKQGELVRT, the amyloid nucleation score is -0.425 ± 0.35.

The substance SKMICPHYK gave an amyloid nucleation score of 5.69 ± 0.071. LCVCRPGRRSIYLMVWVWWN registered an amyloid nucleation score of -0.513 ± 0.53. For TGELSAQHKASTYYCYCWLF, the amyloid nucleation score worked out at 4.43 ± 0.076. Substance FLSSSGRFSIVYSLFYEWIP gave an amyloid nucleation score of -0.674 ± 0.76. Turning to FSTQGTFVSVHGVADLAVCF, the amyloid nucleation score result is “inactive”.

Consider ASGLLPDLDVEKEDRCGIYE, for which the amyloid nucleation score stood at 0.859 ± 0.52. Consider QPSFPTHCQDRFVEECINEV, for which the amyloid nucleation score entry was “inactive”. With TLMDLNNHPTYGYLLVPTVD, the amyloid nucleation score is -0.307 ± 0.79. The substance WYWHPCTIFL gave an amyloid nucleation score of 5.46 ± 0.038. The value for GYYMRLS was “inactive”; that for WNAHN was -0.081 ± 1.1; that for SAIRLMGG was 5.378 ± 0.048. As for FFFMTKNFKIFTSALDVPSE, the amyloid nucleation score is -1.14 ± 1.1. RWYYTRTF returned an amyloid nucleation score of -0.504 ± 1.1. HASTEIGSWL gave an amyloid nucleation score of 0.552 ± 0.42. Consider IRQFDIDITNARNKG, for which the amyloid nucleation score is -1.62 ± 0.62.

On to YRLFWFNC, for which the amyloid nucleation score stood at 1.74 ± 0.11. YLRDVYSSIFAPGMRYPQTR: the amyloid nucleation score is 2.22 ± 0.094. In the case of GSYLA, the amyloid nucleation score was found to be 0.697 ± 0.47. The substance YCTSRVTTRSFISDCLTWIR gave an amyloid nucleation score of 1.97 ± 0.069. The result for CYYMCAYRGVAK reads 0.637 ± 0.36; that for GCHVRSFK, 0.158 ± 0.31; that for IRKCRSHSFSRFRRHFS, 0.285 ± 1. FGRRLQGRHINSNDQWGRQA came in with an amyloid nucleation score of 0.339 ± 0.61. Consider NKRELNIVV, for which the amyloid nucleation score came to 0.701 ± 0.43. The substance VVKRARLSWPFIARKYTSMV yielded an amyloid nucleation score of 0.116 ± 0.4. In the case of GVRYSFSTTRKFTELSFNIC, the amyloid nucleation score is 3 ± 0.16.

For the substance MVYGLDFIGASL, the amyloid nucleation score was -0.016 ± 0.5. For the substance SNGKYG, the amyloid nucleation score was determined as 1.32 ± 0.26.

LSVSCGVKCLEWADMMAHQV yielded an amyloid nucleation score of -0.533 ± 0.54.

With IKCWAPLNCSGGLVGHDQAV, the amyloid nucleation score is -0.562 ± 0.44. The result for AFESKAPGRSSLVGIACSYS reads -0.48 ± 0.48; that for YRFRAIVNIYRCDVGFF, 6.36 ± 0.075.

With YVWRYVRPLVLAIDCVVAR, the amyloid nucleation score is 0.001 ± 0.42. With SRCIFVFYS, the amyloid nucleation score turned out to be 8.165 ± 0.059. LREGCVTLLS displayed an amyloid nucleation score of 0.27 ± 0.36.

Regarding YSQGDGL, the amyloid nucleation score was -0.038 ± 0.65. CDSVVKRIFGTFAGVHLHME had an amyloid nucleation score of -0.228 ± 1.1.

As to TGFQLVNWSNIGLWNNLYGR, the amyloid nucleation score is 5.49 ± 0.065. The value for RCYINFGIHGLWMLHVCFWG was -0.849 ± 1.1; that for AHKLCSFSVSKHHFWRLNGK was -0.023 ± 0.62. RTLYGALMIVWVS: the amyloid nucleation score was determined as 0.004 ± 1.1. In the case of VKFNDFTHKNWY, the amyloid nucleation score worked out at 0.058 ± 0.74. The substance GVSSNGSLCWCVFMKVPAVC had an amyloid nucleation score of 2.98 ± 0.078. LFERLELFWYNEGHIMGFGL had an amyloid nucleation score of 3.42 ± 0.049. The result for LLHYGGSFLAAKFRRMGFTM reads -0.262 ± 0.56. Turning to MWWYSFPLGLLWVFNS, the amyloid nucleation score entry is “inactive”.

In turn, FRIGHSHGYLLM displayed an amyloid nucleation score of -0.805 ± 1.1. The value for ACFSNMDCPGGFVHVFALYG was “inactive”; that for SSYKKYSVVN was -1.59 ± 0.48. The value for VRLRGYSR was -0.439 ± 0.39; that for KLTFTVMYTFCKVLSRDVAC was 3.1 ± 0.1; that for PFCCLWFGLMHSSGVFRFMG was “inactive”. Consider MSSIDFSFCTSSLRTYSIVR, for which the amyloid nucleation score stood at 0.155 ± 1.1. Take VGHQVDCHTSVRYYILYAFF: the amyloid nucleation score worked out at 7.839 ± 0.063. YSVSVRLA came in with an amyloid nucleation score of -0.553 ± 0.63. The result for RRIINFQGHREEYGEMHTVM reads -0.449 ± 0.64; that for RQALVRILFSSSRIGGM, -0.857 ± 0.44.

Substance SSFQEC showed an amyloid nucleation score of -1.2 ± 0.62.

In turn, PLCRRLVLLFRIFYNSRN gave an amyloid nucleation score of -1.46 ± 1.1. PVCFGIEVYDVRFVASNVPG gave an amyloid nucleation score of 0.313 ± 0.48. GWVKTLEGLLMCLVVCNTVM: the amyloid nucleation score came out at 2.98 ± 0.12.

Turning to SFRRSE, the amyloid nucleation score was -0.388 ± 1. For TGQSKDNQDSNMGVICLFYS, the amyloid nucleation score was determined as 4.389 ± 0.04. Turning to NRFMN, the amyloid nucleation score is -0.3 ± 0.46. In the case of RVMYGGCFHSRKRASVPYLY, the amyloid nucleation score was -0.405 ± 0.76. The result for LMHWV reads -0.94 ± 0.38; that for LITRGCCL, -0.33 ± 0.76. Take KGMNCVCACAINRPYSIVLQ: the amyloid nucleation score was 1.41 ± 0.15. Substance SLGLGDVWGGQAYRSAGA displayed an amyloid nucleation score of 0.2 ± 0.28. In the case of PSFSFVMTLVNFRPDFLSMH, the amyloid nucleation score is -1.2 ± 0.78. With ALKNLHAHTG, the amyloid nucleation score stood at 0.015 ± 0.8. In the case of TLASRTNF, the amyloid nucleation score entry was “inactive”.

The substance NWWESRAFGWYDSLSIFSYT had an amyloid nucleation score of -0.469 ± 1.1. Consider DKFMLVSCVYSDNLLVIYSG, for which the amyloid nucleation score entry was “inactive”. IISTIT registered an amyloid nucleation score of 1.49 ± 0.14.

On to KCLSRTQTYACSP, for which the amyloid nucleation score came to 1.78 ± 0.21. On to REDNPRADTCMAYGV, for which the amyloid nucleation score was 1.14 ± 0.35. In turn, LLHYGGSFLAAKFRRMSCNE yielded an amyloid nucleation score of 0.811 ± 0.66. The result for HCGMAYFH reads -0.111 ± 0.32; that for YRRCSRGNPGCDLAGFGRVV, -0.08 ± 0.74.

For the substance AWWRGPSFFNPSWKCMNDSS, the amyloid nucleation score is -0.84 ± 0.54.
